Where two headings read alike, the source gives them in different places.
Assays:
DX3puro (−) cells = assay: Cell binding assay, DX3puro; type: cell-based; conditions: 1 h, 37 °C, γ-counter, n = 3
Text: (§1) Binding to cells with minimal to no expression of integrin αvβ6 was low at 4.4 ± 0.1% to DX3puro cells and 7.9 ± 0.4% to pancreatic MIA PaCa-2 cells. Binding of [^64Cu]PDC-1 to DX3puroβ6 (+) and BxPC-3 (+) was reduced by adding increasing amounts of DOTA-PDC-1, illustrating that the αvβ6-selective uptake could be blocked (Figure S3). Internalization of [^64Cu]-PDC-1 into cells was high with >50% of the bound radioactivity internalized for all cells expressing the integrin αvβ6. In comparison, cell binding of [^64Cu]2 to DX3puroβ6 (+) cells was 58.8 ± 2.3, and 3.3 ± 0.4% to the DX3puro (−) cells.
(§2) Cell binding and internalization assay. Binding and internalization were determined as previously described. […] The fraction of bound radioactivity was determined with a γ-counter (by measuring cell pellet and combined supernatants). To determine the fraction of internalized radioactivity, the cells were re-pelleted, and re-suspended in acidic wash buffer (0.2 M sodium acetate, 0.5 M sodium chloride, pH = 2.5, 300 μL, 4 °C, 5 min) to release surface bound activity, followed by a wash with PBS (300 μL). The internalized fraction was determined with a γ-counter (cell pellet vs. radioactivity released into supernatant). A Wizard 1470 or Wizard 2 2470 automatic γ-counter (Perkin-Elmer, Waltham, MA) was used to measure radioactivity samples. […]

DX3puroβ6 (+) cells = assay: Cell binding assay, DX3puroβ6; type: cell-based; conditions: 1 h, 37 °C, γ-counter, n = 3
Text: as §1, §2

[1] = system: DX3puroβ6/DX3puro and BxPC-3 xenograft tumor models; assay: Biodistribution, both tumor models; type: in vivo, mice; conditions: DOTA-2 (205 nmol) 10 min prior; 4 h p.i.; both models
Description: (§3) Aliquots of the formulated [^64Cu]PDC-1 in isotonic 0.9% saline (4.81–5.74 MBq, 1.7–2.1 μg, 0.26–0.31 nmol, 100 μL, pH 7.2) were injected i.v. as described above. Following the conscious uptake period, the mice were anesthetized (5% isoflurane), euthanized, and dissected (n ≥ 3/model/time point [4, 24, and 48 h]; the 48 h time point also included the imaging animals sacrificed after the PET scans). Tissues were collected, washed, weighed, and radioactivity measured in a γ-counter. Calibrated, decay-corrected radioactivity was expressed as the percentage of injected dose per gram of tissue (% ID/g). Data are reported as mean ± SD. […] For in vivo blocking studies, DOTA-2 (50 mg/kg, 205 nmol, 1.4 mg in 100 μL 0.9% saline) was injected i.v. into two animals/tumor model 10 min prior to [^64Cu]PDC-1. The animals were sacrificed after 4 h, tissues collected, washed, weighed, and radioactivity measured in a γ-counter.

[2] = Biodistribution, both tumor models; type: in vivo, mice; conditions: female, athymic nude, mouse, iv, total radioactivity; for tissue uptake: all time points
Description: as §3

[3] = system: cells expressing the integrin αvβ6; assay: Internalization assay; type: cell-based; conditions: all cells expressing the integrin αvβ6; acidic wash pH 2.5; γ-counter
Text: as §1, §2

[4] = Serum stability in human serum; type: in vitro ADME; conditions: 37 °C, ethanol precipitation, radio RP-HPLC
Description: The serum stability of [^64Cu]PDC-1 was measured in both human and mouse serum at 37 °C at 1, 4, and 24 h.
Mouse serum or human serum (0.5 mL) was combined with an aliquot of [^64Cu]PDC-1 (≤25 μL, 3.9–4.7 MBq) and incubated at 37 °C. At each time point (1, 4, and 24 h), an aliquot (50–200 μL) was taken, proteins precipitated with absolute ethanol and removed by centrifugation at 1500g for 4 min. The ethanol solution was diluted with water (1 mL) and analyzed by RP-HPLC.

## CC[C@H](C)[C@@H]([C@@H](CC(=O)N1CCC[C@H]1[C@H](OC)[C@@H](C)C(=O)N[C@H](C)[C@@H](O)c1ccccc1)OC)N(C)C(=O)[C@@H](NC(=O)[C@H](C(C)C)N(C)C(=O)OCc1ccc(NC(=O)[C@H](CCCNC(N)=O)NC(=O)[C@@H](NC(=O)CCOCCOCCNC(=O)CCN2C(=O)CC(SC[C@H](NC(=O)CN3CCN(CC(=O)O)CCN(CC(=O)O)CCN(CC(=O)O)CC3)C(=O)NCCOCCOCCOCCOCCOCCOCCOCCOCCOCCOCCOCCOCCOCCOCCOCCOCCOCCOCCOCCOCCOCCOCCOCCOCCOCCOCCOCCOCCC(=O)N[C@@H](CC(N)=O)C(=O)N[C@@H](C)C(=O)N[C@H](C(=O)N3CCC[C@H]3C(=O)N[C@@H](CC(N)=O)C(=O)N[C@@H](CC(C)C)C(=O)N[C@@H](CCCNC(=N)N)C(=O)NCC(=O)N[C@@H](CC(=O)O)C(=O)N[C@@H](CC(C)C)C(=O)N[C@@H](CCC(N)=O)C(=O)N[C@H](C(=O)N[C@@H](CC(C)C)C(=O)N[C@@H](C)C(=O)N[C@@H](CCC(N)=O)C(=O)N[C@@H](CCCNC(=N)N)C(=O)N[C@H](C(=O)N[C@@H](C)C(=O)N[C@@H](CCCNC(=N)N)C(=O)N[C@H](C(=O)NCCOCCOCCOCCOCCOCCOCCOCCOCCOCCOCCOCCOCCOCCOCCOCCOCCOCCOCCOCCOCCOCCOCCOCCOCCOCCOCCOCCOCCC(N)=O)[C@@H](C)O)C(C)C)C(C)C)C(C)C)C2=O)C(C)C)cc1)C(C)C (some centres unmarked) [[^64Cu]PDC-1, metal not drawn]
DX3puro (−) cells
  Cell binding: 4.4 ± 0.1%
DX3puroβ6 (+) cells
  Cell binding: 67.0 ± 2.3%
[1]
  Reduction of uptake in the αvβ6 (+) tumors by blocking: 87–91%
[2]; faeces, 4 h, read-out: Fecal matter
  excreta dose per gram or mL at 4 h: 12 %ID/g
[2]; faeces, 48 h, read-out: Fecal matter
  excreta dose per gram or mL at 48 h: 1.5 %ID/g
[2]; kidney, 4 h, both models, read-out: Kidney uptake
  tissue uptake at 4 h: 50 to 64 %ID/g
[2]; kidney, 48 h, both models, read-out: Kidney uptake
  tissue uptake at 48 h: ≤ 25 %ID/g
[2]; large intestines, 4 h, read-out: Large intestines uptake
  tissue uptake at 4 h: 6 %ID/g
[2]; large intestines, 48 h, read-out: Large intestines uptake
  tissue uptake at 48 h: 3 %ID/g
[2]; muscle, read-out: Muscle uptake
  tissue uptake: ≤ 0.9 %ID/g
[2]; pancreas, read-out: Pancreas uptake
  tissue uptake: ≤ 0.5 %ID/g
[2]; small intestines, 4 h, read-out: Small intestines uptake
  tissue uptake at 4 h: 4 to 5 %ID/g
[2]; stomach, 4 h, read-out: Stomach uptake
  tissue uptake at 4 h: 9 %ID/g
[3]
  Internalization, fraction of the bound radioactivity internalized: > 50%
[4]; 1 h
  remaining at 1 h: > 98%
[4]; 4 h
  remaining at 4 h: > 98%
[4]; 24 h
  remaining at 24 h: 89%
